Results published in patent US20230002480A1.

Assays:
Assay in all cases: cell-based or functional assay
[1] = target: HIV-1 Env of pseudovirus 0815.v3.c3 (HIV-1)
[2] = target: HIV-1 Env of pseudovirus 1012_11_TC21_3257 (HIV-1)
[3] = target: HIV-1 Env of pseudovirus 191955_A11 (HIV-1)
[4] = target: HIV-1 Env of pseudovirus 211-9 (HIV-1)
[5] = target: HIV-1 Env of pseudovirus 231966.c02 (HIV-1)
[6] = target: HIV-1 Env of pseudovirus 235-47 (HIV-1)
[7] = target: HIV-1 Env of pseudovirus 263-8 (HIV-1)
[8] = target: HIV-1 Env of pseudovirus 3016.v5.c45 (HIV-1)
[9] = target: HIV-1 Env of pseudovirus 3103.v3.c10 (HIV-1)
[10] = target: HIV-1 Env of pseudovirus 6240_08_TA5_4622 (HIV-1)
[11] = target: HIV-1 Env of pseudovirus 6952.v1.c20 (HIV-1)
[12] = target: HIV-1 Env of pseudovirus 7030102001E5(Rev-) (HIV-1)
[13] = target: HIV-1 Env of pseudovirus 9004SS_A3_4 (HIV-1)
[14] = target: HIV-1 Env of pseudovirus 928-28 (HIV-1)
[15] = target: HIV-1 Env of pseudovirus BJOX009000.02.4 (HIV-1)
[16] = target: HIV-1 Env of pseudovirus BJOX028000.10.3 (HIV-1)
[17] = target: HIV-1 Env of pseudovirus C1080.c03 (HIV-1)
[18] = target: HIV-1 Env of pseudovirus CAAN5342.A2 (HIV-1)
[19] = target: HIV-1 Env of pseudovirus CNE21 (HIV-1)
[20] = target: HIV-1 Env of pseudovirus Ce0682_E4 (HIV-1)
[21] = target: HIV-1 Env of pseudovirus Ce1176_A3 (HIV-1)
[22] = target: HIV-1 Env of pseudovirus Ce2010_F5 (HIV-1)
[23] = target: HIV-1 Env of pseudovirus Ce2060_G9 (HIV-1)
[24] = target: HIV-1 Env of pseudovirus HIV-001428-2.42 (HIV-1)
[25] = target: HIV-1 Env of pseudovirus HIV-16055-2.3 (HIV-1)
[26] = target: HIV-1 Env of pseudovirus MS208.A1 (HIV-1)
[27] = target: HIV-1 Env of pseudovirus P1981_C5_3 (HIV-1)
[28] = target: HIV-1 Env of pseudovirus RHPA4259.7 (HIV-1)
[29] = target: HIV-1 Env of pseudovirus T250-4 (HIV-1)
[30] = target: HIV-1 Env of pseudovirus T257-31 (HIV-1)
[31] = target: HIV-1 Env of pseudovirus TRJO4551.58 (HIV-1)
[32] = target: HIV-1 Env of pseudovirus X1254_c3 (HIV-1)
[33] = target: HIV-1 Env of pseudovirus X1632_S2_B10 (HIV-1)
[34] = target: HIV-1 Env of pseudovirus ZM109F.PB4 (HIV-1)
[35] = target: HIV-1 Env of pseudovirus ZM197M.PB7 (HIV-1)
[36] = target: HIV-1 Env of pseudovirus ZM53M.PB12 (HIV-1)

With PGT151 (antibody) the IC50, titer in TZM.bl cells [1] was over 50 µg/mL, the IC80, titer in TZM.bl cells [1] was over 50 µg/mL and the IC50 [2] was over 50 µg/mL. It also gave an IC80 [2] of over 50 µg/mL, an IC50 [3] of 0.004 µg/mL and an IC80 [3] of 0.014 µg/mL. It also gave an IC50, titer in TZM.bl cells [4] of 0.002 µg/mL, an IC80, titer in TZM.bl cells [4] of 0.01 µg/mL and an IC50, titer in TZM.bl cells [5] of 0.025 µg/mL. It also gave an IC80, titer in TZM.bl cells [5] of 0.183 µg/mL, an IC50, titer in TZM.bl cells [6] of 38.1 µg/mL and an IC80, titer in TZM.bl cells [6] of over 50 µg/mL. The IC50 [7] was over 50 µg/mL, the IC80 [7] was over 50 µg/mL and the IC50, titer in TZM.bl cells [8] was 0.174 µg/mL. It also gave an IC80, titer in TZM.bl cells [8] of 40.7 µg/mL, an IC50, titer in TZM.bl cells [9] of 0.014 µg/mL and an IC80, titer in TZM.bl cells [9] of 0.202 µg/mL. It also gave an IC50 [10] of 0.046 µg/mL, an IC80 [10] of 0.42 µg/mL and an IC50, titer in TZM.bl cells [11] of 49.2 µg/mL. It also gave an IC80, titer in TZM.bl cells [11] of over 50 µg/mL, an IC50 [12] of 0.001 µg/mL and an IC80 [12] of 0.011 µg/mL. The IC50 [13] was 0.003 µg/mL, the IC80 [13] was 0.015 µg/mL and the IC50 [14] was over 50 µg/mL. For the same substance, the IC80 [14] was over 50 µg/mL, the IC50, titer in TZM.bl cells [15] was over 50 µg/mL and the IC80, titer in TZM.bl cells [15] was over 50 µg/mL. The IC50, titer in TZM.bl cells [16] was over 50 µg/mL, the IC80, titer in TZM.bl cells [16] was over 50 µg/mL and the IC50, titer in TZM.bl cells [17] was over 50 µg/mL. For the same substance, the IC80, titer in TZM.bl cells [17] was over 50 µg/mL, the IC50 [18] was 0.005 µg/mL and the IC80 [18] was 0.038 µg/mL. The IC50 [19] was 0.004 µg/mL, the IC80 [19] was 0.012 µg/mL and the IC50 [20] was over 50 µg/mL. It also gave an IC80 [20] of over 50 µg/mL, an IC50 [21] of 0.006 µg/mL and an IC80 [21] of 0.018 µg/mL. For the same substance, the IC50 [22] was over 50 µg/mL, the IC80 [22] was over 50 µg/mL and the IC50 [23] was 0.135 µg/mL. The IC80 [23] was over 50 µg/mL, the IC50 [24] was 0.027 µg/mL and the IC80 [24] was over 50 µg/mL. For the same substance, the IC50 [25] was 0.143 µg/mL, the IC80 [25] was over 50 µg/mL and the IC50 [26] was under 0.001 µg/mL. The IC80 [26] was 0.003 µg/mL, the IC50, titer in TZM.bl cells [27] was 0.021 µg/mL and the IC80, titer in TZM.bl cells [27] was over 50 µg/mL. For the same substance, the IC50 [28] was 0.006 µg/mL, the IC80 [28] was 0.033 µg/mL and the IC50 [29] was 0.005 µg/mL. The IC80 [29] was 0.014 µg/mL, the IC50 [30] was 0.003 µg/mL and the IC80 [30] was 0.01 µg/mL. The IC50 [31] was 0.496 µg/mL, the IC80 [31] was 4.22 µg/mL and the IC50, titer in TZM.bl cells [32] was 0.309 µg/mL. It also gave an IC80, titer in TZM.bl cells [32] of over 50 µg/mL, an IC50, titer in TZM.bl cells [33] of 0.061 µg/mL and an IC80, titer in TZM.bl cells [33] of over 50 µg/mL. For the same substance, the IC50 [34] was 0.609 µg/mL, the IC80 [34] was over 50 µg/mL and the IC50 [35] was 0.003 µg/mL. The IC80 [35] was 0.033 µg/mL, the IC50 [36] was over 50 µg/mL and the IC80 [36] was over 50 µg/mL.
